Key:
[1] = tested on: LNCaP cells; assay: Cell Death Detection ELISA PLUS apoptosis assay; assay type: cell-based, human
Description: Data are shown as mean±S.E. Two group comparisons were analyzed by unpaired Student's t test. The level of significance for all statistical analyses was set at P<0.05. *** P<0.001 compared to control.

[2] = tested on: DU145 cells; assay: MTS cell proliferation assay
Description: (§1) To determine whether or not alterations in PDZD2 and sPDZD2 levels in inhibitor-treated cells are associated with any changes in the cell growth rate, we also monitored DU145, PC-3, 22Rv1, MCF-7 and Hep-G2 cell proliferation by MTS-based assays. Cell proliferation was measured by a tetrazolium-based Cell Titer 96® AQucous assay kit (Promega). Absorbance at 490 nm was recorded 3 hours after MTS addition.
(§2) Cell proliferation was measured by a tetrazolium-based Cell Titer 96® AQucous assay kit (Promega). Absorbance at 490 nm was recorded 3 hours after MTS addition. […] The number of viable cells was counted using hemocytometers. Any apoptotic effect on cancer cells induced by sPDZD2 was measured by the Cell Death Detection ELISA^PLUS assay kit (Roche), which detects the presence of mono- and oligonucleosomes in the cytoplasm of the cells after lysis. Briefly, the cancer cells (1×10^5/ml) were seeded in 24-well plates and treated with 10^−8 M and 10^−7 M sPDZD2 for 24 hours. After treatment, cells were harvested and any apoptosis was detected according to manufacturer's instructions.

[3] = tested on: 22Rv1 cells; assay: MTS cell proliferation assay
Description: as §1, §2

[4] = tested on: DU 145 cells; assay: Trypan blue dye exclusion cell viability assay; assay type: cell-based, human; settings: for viability of the cells: DU 145, mean ± S.E.
[5] = tested on: LNCaP cells; assay: Trypan blue dye exclusion cell viability assay; assay type: cell-based, human
Description: The effects of sPDZD2 on cell viability were monitored by trypan blue dye exclusion assays. Data are shown as mean±S.E. Two group comparisons were analyzed by unpaired Student's t test. The level of significance for all statistical analyses was set at P<0.05. P<0.001 compared to control.

[6] = tested on: MCF-7 cells; assay: Trypan blue dye exclusion cell viability assay; assay type: cell-based, human; settings: for viability of the cells: mean ± S.E.
[7] = tested on: MCF-7 cells; assay: MTS cell proliferation assay
Description: as §1, §2

[8] = tested on: PC-3 cells; assay: Trypan blue dye exclusion cell viability assay; assay type: cell-based, human; settings: for viability of the cells: mean ± S.E.
[9] = tested on: DU145 prostate cancer xenograft tumors; assay: DU145 prostate cancer xenograft tumor volume in nude mice; assay type: in vivo, male BALB/c athymic nude mice
Description: Data are shown as mean±S.E. Two group comparisons were analyzed by unpaired Student's t test. The level of significance for all statistical analyses was set at P<0.05. * P<0.05 compared to saline-treated control.
For in vivo studies, DU145 cancer cells (5×10^6) in 0.2 ml FBS-containing-EMEM medium were injected subcutaneously into the right flank of each male BALB/c athymic nude mice (weight, 20±2 g). After cancer cell injection, the mice were randomly divided into 3 groups, namely the control, low-dose treatment, and high-dose treatment groups. Ten days after tumor cell implantation, each mouse of the low-dose treatment group and high-dose treatment group was injected, respectively, once daily by the intraperitoneal route with 0.084 mg (in 0.1 ml saline) and 8.4 mg (in 0.1 ml saline) recombinant sPDZD2 for 58 days. The width and length of the tumor in millimeters were measured weekly by a caliper, when the implanted tumor became measurable. The tumor volume was calculated according to the following formula: Volume=d^2×D/2 mm^3, where d is the shorter width and D was the longer length.

[10] = tested on: 22Rv1 cells; assay: Trypan blue dye exclusion cell viability assay; assay type: cell-based, human; settings: for viability of the cells: mean ± S.E.
[11] = tested on: Hep-G2 cells; assay: MTS cell proliferation assay
Description: as §1, §2

[12] = tested on: Hep-G2 cells; assay: Trypan blue dye exclusion cell viability assay; assay type: cell-based, human; settings: for viability of the cells: mean ± S.E.
[13] = tested on: PC-3 cells; assay: MTS cell proliferation assay
Description: as §1, §2

[14] = 10^−9 M, 10^−8 M, 10^−7 M sPDZD2, 24 and 48 hours, P<0.001
[15] = co-incubation 10^−8 M sPDZD2 with 10 μM Z-DEVD-FMK, 48 hours

B1: sPDZD2: secreted 37 kDa cleavage product of human PDZD2, tumor suppressor protein of SEQ ID NO: 2; recombinant form carries N-terminal AGH (protein)
chain: LDKLCSEDYSAGPSAVLFKTELEITPRRSPGPPAGGVSCPEKGGNRACPGGSGPKTSAAETPSSASDTGEAAQDLPFRRSWSVNLDQLLVSAGDQQRLQSVLSSVGSKSTILTLIQEAKAQSENEEDVCFIVLNRKEGSGLGFSVAGGTDVEPKSITVHRVFSQGAASQEGTMNRGDFLLSVNGASLAGLAHGNVLKVLHQAQLHKDALVVIKKGMDQPRPSARQEPPTANGKGLLSRKTIPLEPGIGRSVAVHDALCVEVLKTSAGLGLSLDGGKSSVTGDGPLVIKRVYKGGAAEQAGIIEAGDEILAINGKPLVGLMHFDAWNIMKSVPEGPVQLLIRKHRNSS
absorbance at 405 nm (mono- and oligo-nucleosomes in the cell cytoplasm, apoptosis) ([1]; 10^−7 M sPDZD2, 24 hours): Significant (P<0.001) increases | absorbance at 405 nm (mono- and oligo-nucleosomes in the cell cytoplasm, apoptosis) ([1]; sPDZD2, 24 hours): Significant (P<0.001) increases | decrease in cell proliferation ([2]; 10^−7 M sPDZD2, 24 hours): 29.9% | decrease in cell proliferation ([2]; 10^−7 M sPDZD2, 48 hours): 43.5% | decrease in cell proliferation ([2]; 10^−8 M sPDZD2, 24 hours): 25.8% | decrease in cell proliferation ([2]; 10^−8 M sPDZD2, 48 hours): 38.6% | effect on cell proliferation (in words) [2, 14]: concentration-dependent inhibition | effect on the increase in cell proliferation induced by caspase-3 inhibitor treatment [2, 15]: abolished | decrease in cell proliferation ([3]; 10^−7 M sPDZD2, 24 hours): 15.4% | decrease in cell proliferation ([3]; 10^−7 M sPDZD2, 48 hours): 27.7% | decrease in cell proliferation ([3]; 10^−8 M sPDZD2, 24 hours): 12.7% | effect on cell proliferation (in words) [3, 14]: concentration-dependent inhibition | effect on the increase in cell proliferation induced by caspase-3 inhibitor treatment [3, 15]: abolished | decrease in cell proliferation ([3]; sPDZD2, 48 hours): 21.7% | viability of the cells ([4]; 10^−7M sPDZD2, 24 hrs.): 93.78 ± 1.06% | viability of the cells ([4]; 10^−7M sPDZD2, 48 hrs.): 95.25 ± 0.88% | viability of the cells ([4]; 10^−8M sPDZD2, 24 hrs.): 94.66 ± 0.69% | viability of the cells ([4]; 10^−8M sPDZD2, 48 hrs.): 95.09 ± 1.02% | changes in cell viability (in words) ([4]; DU145, sPDZD2, 24 and 48 hours): No changes | decrease in cell viability ([5]; 10^−7 M sPDZD2, 24 hours): 26.2% | decrease in cell viability ([5]; 10^−7 M sPDZD2, 48 hours): 18.6% | decrease in cell viability ([5]; 10^−8M sPDZD2, 48 hours): 14.7% | viability of the cells ([6]; 10^−7M sPDZD2, 24 hrs.): 97.34 ± 0.42% | viability of the cells ([6]; 10^−7M sPDZD2, 48 hrs.): 92.07 ± 0.89% | viability of the cells ([6]; 10^−8M sPDZD2, 24 hrs.): 96.69 ± 0.50% | viability of the cells ([6]; 10^−8M sPDZD2, 48 hrs.): 93.86 ± 0.76% | changes in cell viability (in words) ([6]; sPDZD2, 24 and 48 hours): No changes | decrease in cell proliferation ([7]; 10^−7 M sPDZD2 (first-named of '10^−7 M and 10^−7 M'), 24 hours): 14.5% | decrease in cell proliferation ([7]; 10^−7 M sPDZD2 (second-named), 24 hours): 23.2% | decrease in cell proliferation ([7]; 10^−7 M sPDZD2, 48 hours): 21.4% | effect on cell proliferation (in words) [7, 14]: concentration-dependent inhibition | decrease in cell proliferation ([7]; 1108 M sPDZD2, 48 hours): 13.7% | effect on the increase in cell proliferation induced by caspase-3 inhibitor treatment [7, 15]: abolished | viability of the cells ([8]; 10^−7M sPDZD2, 24 hrs.): 90.86 ± 1.12% | viability of the cells ([8]; 10^−7M sPDZD2, 48 hrs.): 95.45 ± 0.56% | viability of the cells ([8]; 10^−8M sPDZD2, 24 hrs.): 95.03 ± 1.00% | viability of the cells ([8]; 10^−8M sPDZD2, 48 hrs.): 95.49 ± 0.79% | changes in cell viability (in words) ([8]; sPDZD2, 24 and 48 hours): No changes | tumor volumes compared with saline-treated group ([9]; high dose 8.4 mg once daily intraperitoneal for 58 days, at 39, 46, 53, 60 and 67 days after tumor cell implantation): significant decreases | tumor volumes compared with saline-treated group ([9]; low dose 0.084 mg once daily intraperitoneal for 58 days): No significant differences | viability of the cells ([10]; 10^−7M sPDZD2, 24 hrs.): 96.04 ± 0.50% | viability of the cells ([10]; 10^−7M sPDZD2, 48 hrs.): 92.65 ± 0.48% | viability of the cells ([10]; 10^−8M sPDZD2, 24 hrs.): 96.01 ± 0.38% | viability of the cells ([10]; 10^−8M sPDZD2, 48 hrs.): 93.02 ± 0.47% | changes in cell viability (in words) ([10]; sPDZD2, 24 and 48 hours): No changes | decrease in cell proliferation ([11]; 10^−7 M sPDZD2, 24 hours): 23.1% | decrease in cell proliferation ([11]; 10^−7 M sPDZD2, 48 hours): 22.2% | decrease in cell proliferation ([11]; 10^−8 M sPDZD2, 24 hours): 21% | decrease in cell proliferation ([11]; 10^−8 M sPDZD2, 48 hours): 17% | effect on cell proliferation (in words) [11, 14]: concentration-dependent inhibition | effect on the increase in cell proliferation induced by caspase-3 inhibitor treatment [11, 15]: abolished | viability of the cells ([12]; 10^−7M sPDZD2, 24 hrs.): 93.37 ± 0.54% | viability of the cells ([12]; 10^−7M sPDZD2, 48 hrs.): 93.58 ± 0.64% | viability of the cells ([12]; 10^−8M sPDZD2, 24 hrs.): 93.38 ± 0.54% | viability of the cells ([12]; 10^−8M sPDZD2, 48 hrs.): 93.64 ± 0.66% | changes in cell viability (in words) ([12]; sPDZD2, 24 and 48 hours): No changes | decrease in cell proliferation ([13]; 10^−7 M sPDZD2, 24 hours): 22.6% | decrease in cell proliferation ([13]; 10^−7 M sPDZD2, 48 hours): 41.6% | decrease in cell proliferation ([13]; 10^−8M sPDZD2, 24 hours): 13.5% | decrease in cell proliferation ([13]; 10^−8 M sPDZD2, 48 hours): 23.8% | effect on cell proliferation (in words) [13, 14]: concentration-dependent inhibition | effect on the increase in cell proliferation induced by caspase-3 inhibitor treatment [13, 15]: abolished
